Assays:
THP-1细胞表面的LILRB4 [1] = target: T1, THP-1细胞表面的LILRB4 (human, UniProt Q8NHJ6 22-448); assay: cell-based or functional assay
LILRA1 [2] = target: T2, LILRA1 (UniProt O75019 17-461, limits assumed); assay: ELISA, coated protein 100ng/well
T2 construct: construct not described

LILRA2 [3] = target: T3, LILRA2 (UniProt Q8N149 24-449, limits assumed); assay: ELISA, coated protein 100ng/well
T3 construct: construct not described

LILRA3 [4] = target: T4, LILRA3 (UniProt Q8N6C8 24-439); assay: ELISA, coated protein 100ng/well
T4 construct: construct not described
T4 sequence (Q8N6C8 24-439 limits assumed): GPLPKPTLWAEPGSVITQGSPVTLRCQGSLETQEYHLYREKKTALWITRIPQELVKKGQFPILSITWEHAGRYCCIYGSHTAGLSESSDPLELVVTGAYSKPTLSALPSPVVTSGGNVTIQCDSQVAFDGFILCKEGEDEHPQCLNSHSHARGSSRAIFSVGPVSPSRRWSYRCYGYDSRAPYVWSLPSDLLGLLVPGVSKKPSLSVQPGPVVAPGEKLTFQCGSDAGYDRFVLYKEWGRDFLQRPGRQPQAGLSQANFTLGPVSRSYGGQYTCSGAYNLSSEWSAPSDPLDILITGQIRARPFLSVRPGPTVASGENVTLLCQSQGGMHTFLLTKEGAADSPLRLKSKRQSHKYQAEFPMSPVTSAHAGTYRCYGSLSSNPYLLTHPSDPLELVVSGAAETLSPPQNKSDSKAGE

LILRA4 [5] = target: T5, LILRA4 (UniProt P59901 24-446, limits assumed); assay: ELISA, coated protein 100ng/well
T5 construct: construct not described
T5 sequence (P59901 24-446 limits assumed): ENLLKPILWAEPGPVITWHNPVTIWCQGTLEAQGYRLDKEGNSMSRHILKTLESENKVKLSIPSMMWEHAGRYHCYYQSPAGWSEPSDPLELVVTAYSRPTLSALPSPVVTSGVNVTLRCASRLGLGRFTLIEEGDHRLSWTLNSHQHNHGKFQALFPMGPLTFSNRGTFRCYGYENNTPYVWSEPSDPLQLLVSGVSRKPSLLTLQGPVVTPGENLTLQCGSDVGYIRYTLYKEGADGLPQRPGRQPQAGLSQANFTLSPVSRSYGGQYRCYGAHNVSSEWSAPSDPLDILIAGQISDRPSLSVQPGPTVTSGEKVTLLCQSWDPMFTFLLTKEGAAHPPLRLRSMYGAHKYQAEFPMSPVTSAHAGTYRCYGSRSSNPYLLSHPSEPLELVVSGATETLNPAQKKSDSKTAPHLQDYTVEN

LILRA5 [6] = target: T6, LILRA5 (UniProt A6NI73 42-268, limits assumed); assay: ELISA, coated protein 100ng/well
T6 construct: construct not described
T6 sequence (A6NI73 42-268 limits assumed): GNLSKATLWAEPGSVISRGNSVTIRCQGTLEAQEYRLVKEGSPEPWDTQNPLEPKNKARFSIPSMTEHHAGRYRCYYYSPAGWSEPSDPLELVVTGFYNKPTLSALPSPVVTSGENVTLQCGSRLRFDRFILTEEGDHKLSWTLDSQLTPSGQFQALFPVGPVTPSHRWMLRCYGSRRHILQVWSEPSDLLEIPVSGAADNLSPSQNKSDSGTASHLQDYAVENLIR

LILRA6 [7] = target: T7, LILRA6 (UniProt Q6PI73 24-447, limits assumed); assay: ELISA, coated protein 100ng/well
T7 construct: construct not described
T7 sequence (Q6PI73 24-447 limits assumed): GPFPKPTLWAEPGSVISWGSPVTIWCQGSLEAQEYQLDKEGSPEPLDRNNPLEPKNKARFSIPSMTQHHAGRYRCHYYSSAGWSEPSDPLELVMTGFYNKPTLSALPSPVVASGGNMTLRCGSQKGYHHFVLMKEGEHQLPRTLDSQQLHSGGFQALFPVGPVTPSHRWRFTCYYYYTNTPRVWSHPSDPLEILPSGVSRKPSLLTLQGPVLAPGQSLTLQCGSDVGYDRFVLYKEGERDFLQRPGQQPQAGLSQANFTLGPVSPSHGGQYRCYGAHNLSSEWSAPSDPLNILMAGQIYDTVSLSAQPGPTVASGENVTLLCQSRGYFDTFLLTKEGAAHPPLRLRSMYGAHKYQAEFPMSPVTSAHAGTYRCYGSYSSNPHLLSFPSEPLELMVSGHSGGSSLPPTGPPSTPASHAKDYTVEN

LILRB1 [8] = target: T8, LILRB1 (UniProt Q8NHL6 24-461, limits assumed); assay: ELISA, coated protein 100ng/well
T8 construct: construct not described
T8 sequence (Q8NHL6 24-461 limits assumed): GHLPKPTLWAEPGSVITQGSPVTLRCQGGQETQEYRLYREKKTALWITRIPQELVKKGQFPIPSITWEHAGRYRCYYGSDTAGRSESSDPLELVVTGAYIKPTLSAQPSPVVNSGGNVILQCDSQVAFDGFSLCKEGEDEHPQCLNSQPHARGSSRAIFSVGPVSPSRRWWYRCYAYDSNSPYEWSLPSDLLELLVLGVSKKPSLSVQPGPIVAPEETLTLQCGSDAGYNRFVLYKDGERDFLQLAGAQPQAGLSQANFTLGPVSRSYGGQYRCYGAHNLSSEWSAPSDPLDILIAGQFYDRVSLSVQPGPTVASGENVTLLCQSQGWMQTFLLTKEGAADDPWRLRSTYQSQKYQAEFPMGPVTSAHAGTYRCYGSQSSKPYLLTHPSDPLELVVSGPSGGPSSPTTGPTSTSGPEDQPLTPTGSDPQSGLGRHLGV

LILRB2 [9] = target: T9, LILRB2 (UniProt Q8N423 22-460, limits assumed); assay: ELISA, coated protein 100ng/well
T9 construct: construct not described
T9 sequence (Q8N423 22-460 limits assumed): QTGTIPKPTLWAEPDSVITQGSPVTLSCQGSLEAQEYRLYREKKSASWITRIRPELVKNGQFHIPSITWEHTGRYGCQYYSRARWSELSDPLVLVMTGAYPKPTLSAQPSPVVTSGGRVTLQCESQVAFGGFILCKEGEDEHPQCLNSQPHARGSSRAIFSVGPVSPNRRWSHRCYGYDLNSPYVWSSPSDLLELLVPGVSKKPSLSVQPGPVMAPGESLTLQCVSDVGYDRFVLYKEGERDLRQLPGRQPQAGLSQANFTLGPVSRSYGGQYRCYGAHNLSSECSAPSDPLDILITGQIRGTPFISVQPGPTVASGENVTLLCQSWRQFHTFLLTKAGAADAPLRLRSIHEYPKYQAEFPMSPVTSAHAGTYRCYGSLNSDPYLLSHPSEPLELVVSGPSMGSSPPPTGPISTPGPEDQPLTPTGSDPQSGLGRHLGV

LILRB3 [10] = target: T10, LILRB3 (UniProt O75022 24-443, limits assumed); assay: ELISA, coated protein 100ng/well
T10 construct: construct not described
T10 sequence (O75022 24-443 limits assumed): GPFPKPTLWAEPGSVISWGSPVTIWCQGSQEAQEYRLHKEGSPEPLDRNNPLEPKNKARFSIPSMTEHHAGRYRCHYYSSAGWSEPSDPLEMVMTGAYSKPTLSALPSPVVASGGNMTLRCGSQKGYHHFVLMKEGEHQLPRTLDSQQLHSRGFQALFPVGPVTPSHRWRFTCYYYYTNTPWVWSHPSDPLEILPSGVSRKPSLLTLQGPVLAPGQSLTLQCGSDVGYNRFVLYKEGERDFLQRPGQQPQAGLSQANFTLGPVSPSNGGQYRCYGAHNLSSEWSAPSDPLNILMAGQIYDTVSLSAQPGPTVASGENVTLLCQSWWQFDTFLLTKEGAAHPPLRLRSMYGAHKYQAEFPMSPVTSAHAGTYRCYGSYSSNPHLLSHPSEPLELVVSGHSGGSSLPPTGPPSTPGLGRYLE

LILRB5 [11] = target: T11, LILRB5 (UniProt O75023 24-458, limits assumed); assay: ELISA, coated protein 100ng/well
T11 construct: construct not described
T11 sequence (O75023 24-458 limits assumed): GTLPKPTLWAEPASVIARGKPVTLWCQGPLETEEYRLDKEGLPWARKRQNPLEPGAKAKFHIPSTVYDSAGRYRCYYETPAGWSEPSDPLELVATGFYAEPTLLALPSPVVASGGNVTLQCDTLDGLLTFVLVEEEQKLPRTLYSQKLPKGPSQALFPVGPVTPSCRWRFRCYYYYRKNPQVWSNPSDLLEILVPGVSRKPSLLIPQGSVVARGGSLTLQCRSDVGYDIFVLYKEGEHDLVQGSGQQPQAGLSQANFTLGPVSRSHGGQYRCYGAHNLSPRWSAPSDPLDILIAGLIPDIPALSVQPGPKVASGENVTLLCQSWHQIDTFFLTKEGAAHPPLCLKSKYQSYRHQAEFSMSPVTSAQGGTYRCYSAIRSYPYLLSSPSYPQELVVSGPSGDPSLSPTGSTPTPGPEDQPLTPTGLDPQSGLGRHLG

LILRB4抗原 (人LILRB4蛋白胞外段) [12] = target: T12, LILRB4抗原 (人LILRB4蛋白胞外段) (human, UniProt Q8NHJ6 22-259); assay: ELISA, coated LILRB4, anti-mouse IgG-HRP
T12 construct: extracellular domain; also called 白细胞免疫球蛋白样受体亚家族B成员4

LILRB4抗原 (人LILRB4蛋白胞外段) [13] = target: T12, LILRB4抗原 (人LILRB4蛋白胞外段); assay: ELISA, coated protein 100ng/well, antibody 50μg/mL
LILRA1 [14] = target: T2, LILRA1; assay: ELISA, coated protein 100ng/well, antibody 50μg/mL
LILRA2 [15] = target: T3, LILRA2; assay: ELISA, coated protein 100ng/well, antibody 50μg/mL
LILRA3 [16] = target: T4, LILRA3; assay: ELISA, coated protein 100ng/well, antibody 50μg/mL
LILRA4 [17] = target: T5, LILRA4; assay: ELISA, coated protein 100ng/well, antibody 50μg/mL
LILRA5 [18] = target: T6, LILRA5; assay: ELISA, coated protein 100ng/well, antibody 50μg/mL
LILRA6 [19] = target: T7, LILRA6; assay: ELISA, coated protein 100ng/well, antibody 50μg/mL
LILRB1 [20] = target: T8, LILRB1; assay: ELISA, coated protein 100ng/well, antibody 50μg/mL
LILRB2 [21] = target: T9, LILRB2; assay: ELISA, coated protein 100ng/well, antibody 50μg/mL
LILRB3 [22] = target: T10, LILRB3; assay: ELISA, coated protein 100ng/well, antibody 50μg/mL
LILRB5 [23] = target: T11, LILRB5; assay: ELISA, coated protein 100ng/well, antibody 50μg/mL
THP-1细胞表面的LILRB4 [24] = target: T1, THP-1细胞表面的LILRB4; assay: flow cytometry on THP-1 cells, FITC anti-mouse IgG
THP-1细胞表面的LILRB4 [25] = target: T1, THP-1细胞表面的LILRB4; assay: flow cytometry competition on THP-1 cells; competitor FITC-labelled ApoE

T3 sequence (Q8N149 24-449 limits assumed): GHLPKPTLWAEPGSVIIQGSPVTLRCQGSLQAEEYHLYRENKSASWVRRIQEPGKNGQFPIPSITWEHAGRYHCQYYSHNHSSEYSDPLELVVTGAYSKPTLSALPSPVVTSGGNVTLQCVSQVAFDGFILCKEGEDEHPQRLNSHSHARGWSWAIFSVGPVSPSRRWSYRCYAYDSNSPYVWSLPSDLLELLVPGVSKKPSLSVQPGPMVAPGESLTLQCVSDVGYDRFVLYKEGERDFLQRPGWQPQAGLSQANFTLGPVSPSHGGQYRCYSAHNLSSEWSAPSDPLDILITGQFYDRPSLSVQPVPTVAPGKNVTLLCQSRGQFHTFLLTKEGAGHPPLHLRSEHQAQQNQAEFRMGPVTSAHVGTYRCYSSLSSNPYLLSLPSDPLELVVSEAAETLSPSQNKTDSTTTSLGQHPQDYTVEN
T2 sequence (O75019 17-461 limits assumed): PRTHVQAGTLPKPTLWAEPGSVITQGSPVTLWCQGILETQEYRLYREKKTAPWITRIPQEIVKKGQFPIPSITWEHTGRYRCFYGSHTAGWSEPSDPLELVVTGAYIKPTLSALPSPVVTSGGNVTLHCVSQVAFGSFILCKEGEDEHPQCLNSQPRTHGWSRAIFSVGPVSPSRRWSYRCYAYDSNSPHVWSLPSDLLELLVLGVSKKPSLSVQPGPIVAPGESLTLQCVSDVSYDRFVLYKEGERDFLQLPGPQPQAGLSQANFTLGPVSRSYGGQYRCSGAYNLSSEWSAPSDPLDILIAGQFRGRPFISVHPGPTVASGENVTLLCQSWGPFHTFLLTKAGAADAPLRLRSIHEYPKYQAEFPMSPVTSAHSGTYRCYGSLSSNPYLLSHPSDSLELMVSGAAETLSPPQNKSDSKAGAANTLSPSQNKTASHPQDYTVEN

B1: MB-Ⅰ 鼠源抗LILRB4单克隆抗体 (mouse IgG1, Ck) (antibody)
heavy: QVQLQESGAELVKPGASVKLSCKASGYTFTNYWMHWVKQRPGQGLEWIGEINPSNGRTNYNEKFKTKATLTVDKSSSTAYMQLSSLTSEDSAVYYCARWGQLGLREGYYAVDYWGQGTSVTVSSAKTTPPSVYPLAPGSAAQTNSMVTLGCLVKGYFPEPVTVTWNSGSLSSGVHTFPAVLQSDLYTLSSSVTVPSSTWPSETVTCNVAHPASSTKVDKKIVPRDCGCKPCICTVPEVSSVFIFPPKPKDVLTITLTPKVTCVVVDISKDDPEVQFSWFVDDVEVHTAQTQPREEQFNSTFRSVSELPIMHQDWLNGKEFKCRVNSAAFPAPIEKTISKTKGRPKAPQVYTIPPPKEQMAKDKVSLTCMITDFFPEDITVEWQWNGQPAENYKNTQPIMDTDGSYFVYSKLNVQKSNWEAGNTFTCSVLHEGLHNHHTEKSLSHSPG
light: DIVMTQSPSSLSASLGDRVTISCRASQDISNYLNWYQQKPDGTVKLLIYYTSRLHSGVPSRFSGSGSGTDYSLTISNLEQEDIATYFCQQGNTLPPTFGGGTKLEIKADAAPTVSIFPPSSEQLTSGGASVVCFLNNFYPKDINVKWKIDGSERQNGVLNSWTDQDSKDSTYSMSSTLTLTKDEYERHNSYTCEATHKTSTSPIVKSFNRNEC
notes: also called MB-I; 鼠源抗体MB-Ⅰ
IC50 of inhibition of ARG1 secretion by THP-1 cells with ApoE (arginase activity) (THP-1细胞表面的LILRB4 [1]): 46 µg/mL
binding result (LILRA1 [2]): no binding (tested: 50μg/mL)
binding result (LILRA2 [3]): no binding (tested: 50μg/mL)
binding result (LILRA3 [4]): no binding (tested: 50μg/mL)
binding result (LILRA4 [5]): no binding (tested: 50μg/mL)
binding result (LILRA5 [6]): no binding (tested: 50μg/mL)
binding result (LILRA6 [7]): no binding (tested: 50μg/mL)
binding result (LILRB1 [8]): no binding (tested: 50μg/mL)
binding result (LILRB2 [9]): no binding (tested: 50μg/mL)
binding result (LILRB3 [10]): no binding (tested: 50μg/mL)
binding result (LILRB5 [11]): no binding (tested: 50μg/mL)
EC50 (LILRB4抗原 (人LILRB4蛋白胞外段) [12]): 0.0128 µg/mL
OD 450nm/630nm (LILRB4抗原 (人LILRB4蛋白胞外段) [13]): 2.9 OD
OD 450nm/630nm (LILRA1 [14]): 0.022 OD
OD 450nm/630nm (LILRA2 [15]): 0.024 OD
OD 450nm/630nm (LILRA3 [16]): 0.056 OD
OD 450nm/630nm (LILRA4 [17]): 0.028 OD
OD 450nm/630nm (LILRA5 [18]): 0.045 OD
OD 450nm/630nm (LILRA6 [19]): 0.026 OD
OD 450nm/630nm (LILRB1 [20]): 0.038 OD
OD 450nm/630nm (LILRB2 [21]): 0.055 OD
OD 450nm/630nm (LILRB3 [22]): 0.022 OD
OD 450nm/630nm (LILRB5 [23]): 0.016 OD
EC50 (THP-1细胞表面的LILRB4 [24]): 0.351 µg/mL
IC50 (THP-1细胞表面的LILRB4 [25]): 0.44 µg/mL

Source: patent CN116199779A (BEIJING DONGFANG BIOTECH CO LTD; BEIJING JINGYI TAIXIANG …, dated 2023)
